From paper PMC9482650, “Quantitative fragmentomics allow affinity mapping of interactomes” (Nature Communications, 2022)

How the values were obtained:
Assay in all cases: holdup assay
Parameters in all cases: key: below the threshold = too weak to quantify, mostly under pKd 3.1 to 4
Conditions in all cases: plain residues with an end cap or a label only (N-terminal biotin on a linker: ado-ado)
[1] = target: T1, APBA2_1, Q99767
T1 sequence (Q99767 563-664, limits assumed, looked up): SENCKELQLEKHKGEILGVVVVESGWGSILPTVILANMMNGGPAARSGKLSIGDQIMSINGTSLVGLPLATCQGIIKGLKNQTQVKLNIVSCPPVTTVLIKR

[2] = target: T2, DLG3_1, Q92796
T2 sequence (Q92796 125-227, limits assumed, looked up): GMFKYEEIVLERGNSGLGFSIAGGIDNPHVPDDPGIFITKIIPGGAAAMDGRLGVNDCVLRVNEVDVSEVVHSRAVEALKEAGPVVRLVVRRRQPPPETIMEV

[3] = target: T3, DLG3_2, Q92796
T3 sequence (Q92796 221-321, limits assumed, looked up): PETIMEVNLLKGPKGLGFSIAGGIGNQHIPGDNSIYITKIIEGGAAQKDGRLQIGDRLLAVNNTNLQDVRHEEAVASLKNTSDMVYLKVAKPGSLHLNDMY

[4] = target: T4, DVL3, Q92997
T4 sequence (Q92997 244-331, limits assumed, looked up): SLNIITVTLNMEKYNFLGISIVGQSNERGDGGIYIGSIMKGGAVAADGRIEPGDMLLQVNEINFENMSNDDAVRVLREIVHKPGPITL

[5] = target: FRMPD2_1, Q68DX3
Chain of FRMPD2_1, Q68DX3 (Q68DX3 770-861): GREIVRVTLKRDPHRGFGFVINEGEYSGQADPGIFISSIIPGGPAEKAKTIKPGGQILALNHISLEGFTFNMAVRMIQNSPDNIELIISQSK

[6] = target: GOPC, Q9HD26
[7] = target: GORASP2, Q9H8Y8
[8] = target: GRID2IP_2, A4D2P6
Chain of GRID2IP_2, A4D2P6 (A4D2P6 272-370): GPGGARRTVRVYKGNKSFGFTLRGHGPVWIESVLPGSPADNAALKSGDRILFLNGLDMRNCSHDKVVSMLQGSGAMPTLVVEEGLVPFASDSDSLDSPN

[9] = target: GRIP2_4, Q9C0E4
Chain of GRIP2_4, Q9C0E4 (Q9C0E4 446-548): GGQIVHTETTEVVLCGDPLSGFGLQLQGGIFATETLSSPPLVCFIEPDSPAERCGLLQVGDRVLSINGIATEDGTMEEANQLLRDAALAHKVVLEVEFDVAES

[10] = target: IL16_3, Q14005
Chain of IL16_3, Q14005 (Q14005 1107-1207): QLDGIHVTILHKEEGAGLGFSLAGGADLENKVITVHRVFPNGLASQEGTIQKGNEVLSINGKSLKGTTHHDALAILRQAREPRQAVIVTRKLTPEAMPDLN

[11] = target: Inadl_6, Q8NI35
Chain of Inadl_6, Q8NI35 (Q8NI35 1058-1167): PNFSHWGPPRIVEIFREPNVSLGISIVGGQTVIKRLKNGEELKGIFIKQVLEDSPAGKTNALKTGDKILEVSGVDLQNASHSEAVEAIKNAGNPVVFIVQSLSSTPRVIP

[12] = target: Inadl_8, Q8NI35
Chain of Inadl_8, Q8NI35 (Q8NI35 1425-1530): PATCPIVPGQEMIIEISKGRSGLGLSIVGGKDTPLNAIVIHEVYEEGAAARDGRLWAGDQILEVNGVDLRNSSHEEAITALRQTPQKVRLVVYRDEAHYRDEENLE

[13] = target: LIMK2, P53671
Chain of LIMK2, P53671 (P53671 143-248): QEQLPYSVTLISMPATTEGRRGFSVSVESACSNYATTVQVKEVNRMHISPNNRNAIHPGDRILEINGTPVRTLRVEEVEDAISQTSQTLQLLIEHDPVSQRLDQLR

[14] = target: LNX1_1, Q8TBB1
Chain of LNX1_1, Q8TBB1 (Q8TBB1 261-371): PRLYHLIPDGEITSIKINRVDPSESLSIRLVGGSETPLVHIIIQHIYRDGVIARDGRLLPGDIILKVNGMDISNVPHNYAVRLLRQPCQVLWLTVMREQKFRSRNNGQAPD

[15] = target: LNX1_2, Q8TBB1
Chain of LNX1_2, Q8TBB1 (Q8TBB1 371-470): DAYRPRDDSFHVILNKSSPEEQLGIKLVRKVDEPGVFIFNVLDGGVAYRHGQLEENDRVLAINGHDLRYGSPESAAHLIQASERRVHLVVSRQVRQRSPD

[16] = target: MAST1, Q9Y2H9
Chain of MAST1, Q9Y2H9 (Q9Y2H9 962-1065): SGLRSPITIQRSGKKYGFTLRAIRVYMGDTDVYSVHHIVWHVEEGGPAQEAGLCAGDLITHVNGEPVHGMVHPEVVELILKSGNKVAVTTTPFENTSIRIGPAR

[17] = target: MAST2, Q6P0Q8
Chain of MAST2, Q6P0Q8 (Q6P0Q8 1099-1202): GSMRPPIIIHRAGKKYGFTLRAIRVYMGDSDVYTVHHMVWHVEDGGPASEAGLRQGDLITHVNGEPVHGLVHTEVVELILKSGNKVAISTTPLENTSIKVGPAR

[18] = target: T5, MPDZ_12, O75970
T5 sequence (O75970 1857-1958, limits assumed, looked up): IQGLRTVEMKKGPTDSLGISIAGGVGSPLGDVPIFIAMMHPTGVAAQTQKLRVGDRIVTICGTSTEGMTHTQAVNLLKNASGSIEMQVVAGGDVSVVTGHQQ

[19] = target: T6, NHERF3_4, Q5T2W1
T6 sequence (Q5T2W1 373-468, limits assumed, looked up): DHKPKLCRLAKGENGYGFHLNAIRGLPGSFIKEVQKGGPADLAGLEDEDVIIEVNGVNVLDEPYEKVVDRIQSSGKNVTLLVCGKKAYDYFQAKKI

[20] = target: T7, PARD3B_1, Q8TEW8
T7 sequence (Q8TEW8 196-299, limits assumed, looked up): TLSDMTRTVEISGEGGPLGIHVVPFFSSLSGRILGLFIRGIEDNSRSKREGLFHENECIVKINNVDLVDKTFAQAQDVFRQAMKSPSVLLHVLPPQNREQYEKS

[21] = target: PARD3_3, Q8TEW0
Chain of PARD3_3, Q8TEW0 (Q8TEW0 582-685): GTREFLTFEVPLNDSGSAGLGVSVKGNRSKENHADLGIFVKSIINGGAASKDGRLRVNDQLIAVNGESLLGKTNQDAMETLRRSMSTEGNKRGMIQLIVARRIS

[22] = target: T8, RHPN1, Q8TCX5
T8 sequence (Q8TCX5 508-602, limits assumed, looked up): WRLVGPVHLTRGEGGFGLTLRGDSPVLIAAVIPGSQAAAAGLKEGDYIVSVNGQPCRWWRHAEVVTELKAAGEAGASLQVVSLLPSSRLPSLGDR

[23] = target: SCRIB_1, Q14160
Chain of SCRIB_1, Q14160 (Q14160 718-814): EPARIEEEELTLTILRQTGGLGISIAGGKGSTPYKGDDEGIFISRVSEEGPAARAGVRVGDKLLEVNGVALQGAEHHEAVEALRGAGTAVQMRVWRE

[24] = target: SCRIB_2, Q14160
Chain of SCRIB_2, Q14160 (Q14160 857-960): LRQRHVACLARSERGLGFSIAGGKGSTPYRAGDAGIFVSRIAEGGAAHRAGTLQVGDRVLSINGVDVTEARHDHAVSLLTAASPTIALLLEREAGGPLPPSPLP

[25] = target: T9, SHANK1, Q9Y566
T9 sequence (Q9Y566 658-767, limits assumed, looked up): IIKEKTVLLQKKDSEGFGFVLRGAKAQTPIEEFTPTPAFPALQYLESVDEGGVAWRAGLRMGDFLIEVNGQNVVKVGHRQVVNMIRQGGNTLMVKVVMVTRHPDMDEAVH

[26] = target: T10, SNTG2, Q9NY99
T10 sequence (Q9NY99 68-166, limits assumed, looked up): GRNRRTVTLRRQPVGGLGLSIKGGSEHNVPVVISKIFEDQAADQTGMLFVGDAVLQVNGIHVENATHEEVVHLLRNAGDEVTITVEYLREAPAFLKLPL

[27] = target: TJP1_2, Q07157
Chain of TJP1_2, Q07157 (Q07157 181-274): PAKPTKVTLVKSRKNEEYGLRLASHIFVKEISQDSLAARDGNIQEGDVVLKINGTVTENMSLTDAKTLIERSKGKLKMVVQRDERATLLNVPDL

B1: STK16, O75716 (peptide)
chain: PAPGQHTTQI
For B1, the pKd [1] was “below the threshold”, the pKd [2] was “below the threshold” and the pKd [3] was 4.11. For the same binder, the pKd [4] was “below the threshold”, the pKd [5] was “below the threshold” and the pKd [6] was 3.77. The pKd [7] was 3.54, the pKd [8] was 3.98 and the pKd [9] was “below the threshold”. The pKd [10] was “below the threshold”, the pKd [11] was “below the threshold” and the pKd [12] was “below the threshold”. The pKd [13] was “below the threshold”, the pKd [14] was “below the threshold” and the pKd [15] was “below the threshold”. The pKd [16] was 4.37, the pKd [17] was 5.27 and the pKd [18] was “below the threshold”. For the same binder, the pKd [19] was “below the threshold”, the pKd [20] was 3.69 and the pKd [21] was “below the threshold”. The pKd [22] was 4.35, the pKd [23] was 3.84 and the pKd [24] was “below the threshold”. For the same binder, the pKd [25] was 3.75, the pKd [26] was “below the threshold” and the pKd [27] was “below the threshold”.

B2: PPFIA1, Q13136 (peptide)
chain: DSATVRTYSC
For B2, the pKd [1] was “below the threshold”, the pKd [2] was “below the threshold” and the pKd [3] was 4.08. The pKd [4] was “below the threshold”, the pKd [5] was 4.49 and the pKd [6] was “below the threshold”. For the same binder, the pKd [7] was 3.62, the pKd [8] was 3.49 and the pKd [9] was “below the threshold”. For the same binder, the pKd [10] was “below the threshold”, the pKd [11] was “below the threshold” and the pKd [12] was “below the threshold”. For the same binder, the pKd [13] was “below the threshold”, the pKd [14] was “below the threshold” and the pKd [15] was 4.83. For the same binder, the pKd [16] was “below the threshold”, the pKd [17] was 3.98 and the pKd [18] was “below the threshold”. For the same binder, the pKd [19] was “below the threshold”, the pKd [20] was 3.57 and the pKd [21] was “below the threshold”. For the same binder, the pKd [22] was “below the threshold”, the pKd [23] was “below the threshold” and the pKd [24] was “below the threshold”. For the same binder, the pKd [25] was “below the threshold”, the pKd [26] was “below the threshold” and the pKd [27] was 3.48.

B3: MCM7, P33993 (peptide)
chain: NASRTRITFV
With B3 the pKd [1] was “below the threshold”, the pKd [2] was 4.19 and the pKd [3] was 4.75. For the same binder, the pKd [4] was 3.96, the pKd [5] was “below the threshold” and the pKd [6] was 4.2. The pKd [7] was 5.38, the pKd [8] was 4.97 and the pKd [9] was “below the threshold”. The pKd [10] was “below the threshold”, the pKd [11] was 4.46 and the pKd [12] was 5.05. The pKd [13] was “below the threshold”, the pKd [14] was 4.3 and the pKd [15] was 4.06. It also gave a pKd [16] of 4.39, a pKd [17] of 4.99 and a pKd [18] of 3.77. The pKd [19] was 3.53, the pKd [20] was “below the threshold” and the pKd [21] was “below the threshold”. For the same binder, the pKd [22] was 4.48, the pKd [23] was 4.26 and the pKd [24] was “below the threshold”. The pKd [25] was “below the threshold”, the pKd [26] was 3.84 and the pKd [27] was 3.62.

B4: DENND5A, Q6IQ26 (peptide)
chain: ETSLVKGIDI
For B4, the pKd [1] was “below the threshold”, the pKd [2] was “below the threshold” and the pKd [3] was 3.57. For the same binder, the pKd [4] was “below the threshold”, the pKd [5] was “below the threshold” and the pKd [6] was “below the threshold”. The pKd [7] was 3.79, the pKd [8] was “below the threshold” and the pKd [9] was “below the threshold”. For the same binder, the pKd [10] was “below the threshold”, the pKd [11] was “below the threshold” and the pKd [12] was “below the threshold”. The pKd [13] was “below the threshold”, the pKd [14] was 3.79 and the pKd [15] was “below the threshold”. For the same binder, the pKd [16] was “below the threshold”, the pKd [17] was “below the threshold” and the pKd [18] was 3.6. The pKd [19] was “below the threshold”, the pKd [20] was 4.23 and the pKd [21] was 3.83. The pKd [22] was 3.56, the pKd [23] was “below the threshold” and the pKd [24] was “below the threshold”. For the same binder, the pKd [25] was “below the threshold”, the pKd [26] was “below the threshold” and the pKd [27] was 4.03.

B5: EFNB3, Q15768 (peptide)
chain: QSPPNIYYKV
In the case of B5, the pKd [1] is reported as “below the threshold”, the pKd [2] is reported as “below the threshold” and the pKd [3] is reported as “below the threshold”. The pKd [4] was “below the threshold”, the pKd [5] was 3.79 and the pKd [6] was 3.51. For the same binder, the pKd [7] was 4.99, the pKd [8] was “below the threshold” and the pKd [9] was “below the threshold”. The pKd [10] was “below the threshold”, the pKd [11] was “below the threshold” and the pKd [12] was “below the threshold”. For the same binder, the pKd [13] was “below the threshold”, the pKd [14] was 3.86 and the pKd [15] was 3.74. For the same binder, the pKd [16] was 4.07, the pKd [17] was 4.54 and the pKd [18] was “below the threshold”. The pKd [19] was 3.54, the pKd [20] was 3.77 and the pKd [21] was “below the threshold”. The pKd [22] was “below the threshold”, the pKd [23] was “below the threshold” and the pKd [24] was “below the threshold”. For the same binder, the pKd [25] was “below the threshold”, the pKd [26] was 3.7 and the pKd [27] was “below the threshold”.
